According to patent US20250352667A1:
Changes are numbered by the printed parent chain. Names and notes keep the numbering of the source.

Tests used:
[1] = molecular target: KEAP1 (wild-type full-length), His-tagged (human) (UniProt Q14145); test: AlphaScreen; 9.6 nM FLAG-NRF2, 150 nM His-KEAP1; Rep 2; control for I86V
[2] = molecular target: KEAP1 (wild-type full-length), His-tagged (human) (UniProt Q14145); test: AlphaScreen; 307.2 nM FLAG-NRF2, 150 nM His-KEAP1; signal against NRF2 only; control for I86V
[3] = molecular target: KEAP1 (wild-type full-length), His-tagged (human) (UniProt Q14145); test: AlphaScreen; 307.2 nM FLAG-NRF2, 150 nM His-KEAP1; Rep 3; control for I86V
[4] = molecular target: KEAP1 (wild-type full-length), His-tagged (human) (UniProt Q14145); test: AlphaScreen; 4.8 nM FLAG-NRF2, 150 nM His-KEAP1; Rep 3; control for I86V
[5] = molecular target: KEAP1 (wild-type full-length), His-tagged (human) (UniProt Q14145); test: AlphaScreen; FLAG-NRF2 wt isoform 1 19.2 nM, His-KEAP1 150 nM; Repeat 1; positive control for Q75R
[6] = molecular target: KEAP1 (wild-type full-length), His-tagged (human) (UniProt Q14145); test: AlphaScreen; 19.2 nM FLAG-NRF2, 150 nM His-KEAP1; Repeat 1 (same value as in Table 26)
[7] = molecular target: KEAP1 (wild-type full-length), His-tagged (human) (UniProt Q14145); test: AlphaScreen; 307.2 nM FLAG-NRF2, 150 nM His-KEAP1; Rep 2; control for I86V
[8] = molecular target: KEAP1 (wild-type full-length), His-tagged (human) (UniProt Q14145); test: AlphaScreen; FLAG-NRF2 wt isoform 1 19.2 nM, His-KEAP1 150 nM; Rep 1; positive control for I86V
[9] = molecular target: KEAP1 (wild-type full-length), His-tagged (human) (UniProt Q14145); test: AlphaScreen; 19.2 nM FLAG-NRF2, 150 nM His-KEAP1; signal against NRF2 only; control for I86V
[10] = molecular target: KEAP1 (wild-type full-length), His-tagged (human) (UniProt Q14145); test: AlphaScreen; 9.6 nM FLAG-NRF2, 150 nM His-KEAP1; Rep 1; control for I28V
[11] = molecular target: KEAP1 (wild-type full-length), His-tagged (human) (UniProt Q14145); test: AlphaScreen; 38.4 nM FLAG-NRF2, 150 nM His-KEAP1 (same value as in Table 26)
[12] = molecular target: KEAP1 (wild-type full-length), His-tagged (human) (UniProt Q14145); test: AlphaScreen; FLAG-NRF2 wt isoform 1 19.2 nM, His-KEAP1 150 nM; Rep 2; positive control for I86V
[13] = molecular target: KEAP1 (wild-type full-length), His-tagged (human) (UniProt Q14145); test: AlphaScreen; FLAG-NRF2 wt isoform 1 614.4 nM, His-KEAP1 150 nM; Rep 1; positive control for Q75R
[14] = molecular target: KEAP1 (wild-type full-length), His-tagged (human) (UniProt Q14145); test: AlphaScreen; 38.4 nM FLAG-NRF2, 150 nM His-KEAP1; wild type set to 100%
[15] = molecular target: KEAP1 (wild-type full-length), His-tagged (human) (UniProt Q14145); test: AlphaScreen; 4.8 nM FLAG-NRF2, 150 nM His-KEAP1; signal against NRF2 only; control for I86V
[16] = molecular target: KEAP1 (wild-type full-length), His-tagged (human) (UniProt Q14145); test: AlphaScreen; 19.2 nM FLAG-NRF2, 150 nM His-KEAP1; signal against NRF2 only; control for I28V
[17] = molecular target: KEAP1 (wild-type full-length), His-tagged (human) (UniProt Q14145); test: AlphaScreen; mean over 9.6, 19.2 and 38.4 nM NRF2; 150 nM His-KEAP1
[18] = molecular target: KEAP1 (wild-type full-length), His-tagged (human) (UniProt Q14145); test: AlphaScreen; 9.6 nM FLAG-NRF2, 150 nM His-KEAP1; Repeat 1 (same value as in Table 27)
[19] = molecular target: KEAP1 (wild-type full-length), His-tagged (human) (UniProt Q14145); test: AlphaScreen; 9.6 nM FLAG-NRF2, 150 nM His-KEAP1; Rep 2
[20] = molecular target: KEAP1 (wild-type full-length), His-tagged (human) (UniProt Q14145); test: AlphaScreen; NRF2 Q75R 9.6 nM, KEAP1 150 nM; signal against NRF2-only control
[21] = molecular target: KEAP1 (wild-type full-length), His-tagged (human) (UniProt Q14145); test: AlphaScreen; FLAG-NRF2 Q75R 153.6 nM, His-KEAP1 150 nM; Rep 1
[22] = molecular target: KEAP1 (wild-type full-length), His-tagged (human) (UniProt Q14145); test: AlphaScreen; FLAG-NRF2 Q75R 2.4 nM, His-KEAP1 150 nM; Rep 2
[23] = molecular target: KEAP1 (wild-type full-length), His-tagged (human) (UniProt Q14145); test: AlphaScreen; FLAG-NRF2 Q75R 19.2 nM, His-KEAP1 150 nM; Rep 2
[24] = molecular target: KEAP1 (wild-type full-length), His-tagged (human) (UniProt Q14145); test: AlphaScreen; FLAG-NRF2 Q75R 307.2 nM, His-KEAP1 150 nM; Rep 2
[25] = molecular target: KEAP1 (wild-type full-length), His-tagged (human) (UniProt Q14145); test: AlphaScreen; NRF2 I86V 2.4 nM, KEAP1 150 nM; signal against NRF2-only control
[26] = molecular target: KEAP1 (wild-type full-length), His-tagged (human) (UniProt Q14145); test: AlphaScreen; FLAG-NRF2 I86V 1228.8 nM, His-KEAP1 150 nM; Rep 3
[27] = molecular target: KEAP1 (wild-type full-length), His-tagged (human) (UniProt Q14145); test: AlphaScreen; FLAG-NRF2 I86V 38.4 nM, His-KEAP1 150 nM; Rep 3

Chain of KEAP1 (wild-type full-length), His-tagged (human) (Q14145 2-624 limits assumed): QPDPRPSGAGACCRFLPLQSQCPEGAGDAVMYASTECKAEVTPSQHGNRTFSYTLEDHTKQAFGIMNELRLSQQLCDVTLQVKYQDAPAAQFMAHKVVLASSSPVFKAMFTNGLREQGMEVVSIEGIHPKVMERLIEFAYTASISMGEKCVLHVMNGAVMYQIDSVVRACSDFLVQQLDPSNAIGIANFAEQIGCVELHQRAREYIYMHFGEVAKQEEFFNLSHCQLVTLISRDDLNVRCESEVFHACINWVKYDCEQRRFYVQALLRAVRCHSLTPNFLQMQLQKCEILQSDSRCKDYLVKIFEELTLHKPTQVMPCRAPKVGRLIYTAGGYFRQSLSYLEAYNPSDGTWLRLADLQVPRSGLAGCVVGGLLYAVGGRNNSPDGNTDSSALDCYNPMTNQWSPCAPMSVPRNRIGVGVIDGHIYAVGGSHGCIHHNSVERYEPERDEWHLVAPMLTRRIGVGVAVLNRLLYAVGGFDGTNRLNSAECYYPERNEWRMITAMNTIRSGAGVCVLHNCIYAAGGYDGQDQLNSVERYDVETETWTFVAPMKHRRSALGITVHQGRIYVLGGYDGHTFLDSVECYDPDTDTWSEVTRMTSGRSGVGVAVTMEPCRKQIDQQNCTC

B1: NRF2 isoform 1 (wild-type full-length), FLAG-tagged (protein)
chain: MMDLELPPPGLPSQQDMDLIDILWRQDIDLGVSREVFDFSQRRKEYELEKQKKLEKERQEQLQKEQEKAFFAQLQLDEETGEFLPIQPAQHIQSETSGSANYSQVAHIPKSDALYFDDCMQLLAQTFPFVDDNEVSSATFQSLVPDIPGHIESPVFIATNQAQSPETSVAQVAPVDLDGMQQDIEQVWEELLSIPELQCLNIENDKLVETTMVPSPEAKLTEVDNYHFYSSIPSMEKEVGNCSPHFLNAFEDSFSSILSTEDPNQLTVNSLNSDATVNTDFGDEFYSAFIAEPSISNSMPSPATLSHSLSELLNGPIDVSDLSLCKAFNQNHPESTAEFNDSDSGISLNTSPSVASPEHSVESSSYGDTLLGLSDSEVEELDSAPGSVKQNGPKTPVHSSGDMVQPLSPSQGQSTHVHDAQCENTPEKELPVSPGHRKTPFTKDKHSSRLEAHLTRDELRAKALHIPFPVEKIINLPVVDFNEMMSKEQFNEAQLALIRDIRRRGKNKVAAQNCRKRKLENIVELEQDLDHLKDEKEKLLKEKGENDKSLHLLKKQLSTLYLEVFSMLRDEDGKPYSPSEYSLQQTRDGNVFLVPKSKKPDVKKN
Question: B1 was tested. Which A-counts [1] did it give?
Answer: Its A-counts is 2720 A-counts.

Question: And the S/N [2]?
Answer: The S/N was 1.5.

Question: What about the A-counts [3] of the same binder?
Answer: Its A-counts is 2910 A-counts.

Question: And the A-counts [4]?
Answer: The A-counts was 1860 A-counts.

Question: And the A-counts (NRF2 plus KEAP1) [5]?
Answer: The A-counts (NRF2 plus KEAP1) was 1360 A-counts.

Question: What about the A-counts [6] of the same binder?
Answer: The A-counts was 1980 A-counts.

Question: And the A-counts [7]?
Answer: The A-counts was 2790 A-counts.

Question: What about the A-counts (NRF2 plus KEAP1) [8] of the same binder?
Answer: Its A-counts (NRF2 plus KEAP1) is 3300 A-counts.

Question: And the S/N [9]?
Answer: The S/N was 4.1.

Question: What about the A-counts [10] of the same binder?
Answer: The A-counts was 1590 A-counts.

Question: What about the S/N [11] of the same binder?
Answer: The S/N was 3.6.

Question: And the A-counts (NRF2 plus KEAP1) [12]?
Answer: Its A-counts (NRF2 plus KEAP1) is 3270 A-counts.

Question: What about the A-counts (NRF2 plus KEAP1) [13] of the same binder?
Answer: Its A-counts (NRF2 plus KEAP1) is 1650 A-counts.

Question: And the Binding Percentage (%) [14]?
Answer: Its Binding Percentage (%) is 100%.

Question: What about the S/N [15] of the same binder?
Answer: The S/N was 2.8.

Question: And the S/N [16]?
Answer: Its S/N is 4.2.

Question: What about the Average Binding [17] of the same binder?
Answer: The Average Binding was 100%.

B2: NRF2 isoform 1 (I28V full-length), FLAG-tagged (protein)
chain: B1 chain with I28V
Question: B2 was tested. Which A-counts [18] did it give?
Answer: The A-counts was 1570 A-counts.

Question: And the A-counts [19]?
Answer: Its A-counts is 1560 A-counts.

B3: NRF2 isoform 1 (Q75R full-length), FLAG-tagged (protein)
chain: B1 chain with Q75R
Question: How did the S/N [20] turn out when B3 was run?
Answer: Its S/N is 2.4.

Question: What about the A-counts (NRF2 plus KEAP1) [21] of the same binder?
Answer: Its A-counts (NRF2 plus KEAP1) is 1070 A-counts.

Question: What about the A-counts (NRF2 plus KEAP1) [22] of the same binder?
Answer: The A-counts (NRF2 plus KEAP1) was 566 A-counts.

Question: What about the A-counts (NRF2 plus KEAP1) [23] of the same binder?
Answer: Its A-counts (NRF2 plus KEAP1) is 1280 A-counts.

Question: And the A-counts (NRF2 plus KEAP1) [24]?
Answer: Its A-counts (NRF2 plus KEAP1) is 1020 A-counts.

B4: NRF2 isoform 1 (I86V full-length), FLAG-tagged (protein)
chain: B1 chain with I86V
Question: B4 was tested. Which S/N [25] did it give?
Answer: The S/N was 2.6.

Question: And the A-counts (NRF2 plus KEAP1) [26]?
Answer: The A-counts (NRF2 plus KEAP1) was 1620 A-counts.

Question: And the A-counts (NRF2 plus KEAP1) [27]?
Answer: The A-counts (NRF2 plus KEAP1) was 2930 A-counts.
